Here are results for 3 molecules from PMC4138323 (RNA, 2014).

To fix the notation:
B1: GST–CNOT1_(1088–1312) (domain or fragment)
chain: ENIQEKIAFIFNNLSQSNMTQKVEELKETVKEEFMPWVSQYLVMKRVSIEPNFHSLYSNFLDTLKNPEFNKMVLNETYRNIKVLLTSDKAAANFSDRSLLKNLGHWLGMITLAKNKPILHTDLDVKSLLLEAYVKGQQELLYVVPFVAKVLESSIRSVVFRPPNPWTMAIMNVLAELHQEHDLKLNLKFEIEVLCKNLALDINELKPGNLLKDKDRLKNLDEQLS
B2: maltose-binding protein (MBP)-tagged full-length human DDX6 (natural protein)
chain: MSTARTENPVIMGLSSQNGQLRGPVKPTGGPGGGGTQTQQQMNQLKNTNTINNGTQQQAQSMTTTIKPGDDWKKTLKLPPKDLRIKTSDVTSTKGNEFEDYCLKRELLMGIFEMGWEKPSPIQEESIPIALSGRDILARAKNGTGKSGAYLIPLLERLDLKKDNIQAMVIVPTRELALQVSQICIQVSKHMGGAKVMATTGGTNLRDDIMRLDDTVHVVIATPGRILDLIKKGVAKVDHVQMIVLDEADKLLSQDFVQIMEDIILTLPKNRQILLYSATFPLSVQKFMNSHLQKPYEINLMEELTLKGVTQYYAYVTERQKVHCLNTLFSRLQINQSIIFCNSSQRVELLAKKISQLGYSCFYIHAKMRQEHRNRVFHDFRNGLCRNLVCTDLFTRGIDIQAVNVVINFDFPKLAETYLHRIGRSGRFGHLGLAINLITYDDRFNLKSIEEQLGTEIKPIPSNIDKSLYVAEYHSEPVEDEKP

What all share (test): pull-down
In experiment [1] the target is T1, MBP–DDX6 N-term (residues 1–302) (human, UniProt P26196 1-302).
T1 sequence: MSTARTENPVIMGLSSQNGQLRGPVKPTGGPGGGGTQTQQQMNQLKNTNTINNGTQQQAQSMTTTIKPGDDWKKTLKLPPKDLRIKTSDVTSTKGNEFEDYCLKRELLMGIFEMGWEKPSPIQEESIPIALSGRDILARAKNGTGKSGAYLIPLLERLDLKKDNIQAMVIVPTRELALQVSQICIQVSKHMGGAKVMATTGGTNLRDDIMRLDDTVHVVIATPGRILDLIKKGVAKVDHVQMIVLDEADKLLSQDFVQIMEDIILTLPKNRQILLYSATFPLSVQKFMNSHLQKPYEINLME

Experiment [2] has as its target B2.
The target in the next experiment is GST–CNOT1_(1075–1575) (human, UniProt A5YKK6-2 1075-1575).
Chain of GST–CNOT1_(1075–1575) (A5YKK6 1080-1580): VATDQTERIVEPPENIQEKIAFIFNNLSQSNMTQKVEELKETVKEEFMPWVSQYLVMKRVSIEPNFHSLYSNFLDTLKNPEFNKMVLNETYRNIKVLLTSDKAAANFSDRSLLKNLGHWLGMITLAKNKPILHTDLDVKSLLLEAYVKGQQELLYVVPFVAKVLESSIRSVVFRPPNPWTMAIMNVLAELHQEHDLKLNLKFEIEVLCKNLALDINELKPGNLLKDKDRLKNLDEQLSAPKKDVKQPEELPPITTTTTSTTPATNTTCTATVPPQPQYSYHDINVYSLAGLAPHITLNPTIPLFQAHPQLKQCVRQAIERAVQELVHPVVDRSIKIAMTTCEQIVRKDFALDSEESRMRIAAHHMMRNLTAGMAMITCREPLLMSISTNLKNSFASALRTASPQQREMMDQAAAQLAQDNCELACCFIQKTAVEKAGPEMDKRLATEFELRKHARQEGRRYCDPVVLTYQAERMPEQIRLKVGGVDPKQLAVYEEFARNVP
For the experiment “GST–CNOT1_(1088–1312)”, the target named is B1.

With B1, the binding result in experiment [1] and in experiment [2] was “binds” throughout.
As for B2, the binding result with GST–CNOT1_(1075–1575) is “binds”.

B3: MBP–DDX6 C-term (residues 303–483) (domain or fragment)
chain: ELTLKGVTQYYAYVTERQKVHCLNTLFSRLQINQSIIFCNSSQRVELLAKKISQLGYSCFYIHAKMRQEHRNRVFHDFRNGLCRNLVCTDLFTRGIDIQAVNVVINFDFPKLAETYLHRIGRSGRFGHLGLAINLITYDDRFNLKSIEEQLGTEIKPIPSNIDKSLYVAEYHSEPVEDEKP
B3: in the experiment with GST–CNOT1_(1088–1312), the binding result was “binds”.
